In PMC3616969:

How the values were obtained:
[1] = target: HIV-1 AD8 gp41 (wild type), cut from Env gp160 (HIV-1 AD8)
[2] = target: HIV-1 AD8 gp41 K601N (HIV-1 AD8)
[3] = target: HIV-1 AD8 gp41 K601D (HIV-1 AD8); test: gp120 shedding assay (radioimmunoprecipitation of cell lysates and culture supernatants); 293T cells transfected with Env vectors, 35S pulse 45 min, chase 5-6 h; cell lysates and clarified supernatants immunoprecipitated with IgG14 and protein G Sepharose; reducing SDS-PAGE, phosphorimager; gp120-shedding index against WT
[4] = target: HIV-1 AD8 gp41 K601N (HIV-1 AD8); test: as above
[5] = target: HIV-1 AD8 gp41 (wild type), cut from Env gp160; test: radioimmunoprecipitation with HIVIG of metabolically labelled cell lysates and supernatants, SDS-PAGE, phosphorimager scanning

Chain of C34, HR2-based fusion inhibitor peptide (P03375 628-661): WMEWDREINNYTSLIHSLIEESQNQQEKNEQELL

| Substance | other: gp120-shedding index [5] | other results |
| --- | --- | --- |
| C34, HR2-based fusion inhibitor peptide |  | IC50 of C34 for inhibition of cell-cell fusion by WT Env (luciferase) [1]: 0.1 µM; IC50 of C34 for inhibition of cell-cell fusion by ΔN139INN/K601N Env (luciferase) [2]: 0.1 µM |
| HIV-1 AD8 gp120 (wild type), cut from Env gp160 (natural protein) |  | gp120 shedding, fold with respect to WT [3]: 6.8 fold; gp120 shedding, fold with respect to WT [4]: 4.4 fold |
| HIV-1 AD8 gp120 (wild type), cut from Env gp160 N160Q | 0.7 |  |
| HIV-1 AD8 gp120 (wild type), cut from Env gp160 S143N | 0.6 |  |
| HIV-1 AD8 gp120 (wild type), cut from Env gp160 S144N | 0.6 |  |
| HIV-1 AD8 gp120 (wild type), cut from Env gp160 S158N | 3.6 |  |
| HIV-1 AD8 gp120 (wild type), cut from Env gp160 S188N | 1.6 |  |
| HIV-1 AD8 gp120 (wild type), cut from Env gp160 T138N | 0.5 |  |
| HIV-1 AD8 gp120 T138N (natural protein) |  | gp120-gp41 association, fold improvement with respect to K601D [3]: 2 fold |
